# Measured values taken from patent publication US20060172941A1 (published 2006).
# Target: VEGF receptor on endothelial cells
# Test: inhibition of radiolabeled VEGF binding to its receptor on endothelial cells; peptide concentration varied
# Chain of VEGF receptor on endothelial cells (chain, as listed by the source): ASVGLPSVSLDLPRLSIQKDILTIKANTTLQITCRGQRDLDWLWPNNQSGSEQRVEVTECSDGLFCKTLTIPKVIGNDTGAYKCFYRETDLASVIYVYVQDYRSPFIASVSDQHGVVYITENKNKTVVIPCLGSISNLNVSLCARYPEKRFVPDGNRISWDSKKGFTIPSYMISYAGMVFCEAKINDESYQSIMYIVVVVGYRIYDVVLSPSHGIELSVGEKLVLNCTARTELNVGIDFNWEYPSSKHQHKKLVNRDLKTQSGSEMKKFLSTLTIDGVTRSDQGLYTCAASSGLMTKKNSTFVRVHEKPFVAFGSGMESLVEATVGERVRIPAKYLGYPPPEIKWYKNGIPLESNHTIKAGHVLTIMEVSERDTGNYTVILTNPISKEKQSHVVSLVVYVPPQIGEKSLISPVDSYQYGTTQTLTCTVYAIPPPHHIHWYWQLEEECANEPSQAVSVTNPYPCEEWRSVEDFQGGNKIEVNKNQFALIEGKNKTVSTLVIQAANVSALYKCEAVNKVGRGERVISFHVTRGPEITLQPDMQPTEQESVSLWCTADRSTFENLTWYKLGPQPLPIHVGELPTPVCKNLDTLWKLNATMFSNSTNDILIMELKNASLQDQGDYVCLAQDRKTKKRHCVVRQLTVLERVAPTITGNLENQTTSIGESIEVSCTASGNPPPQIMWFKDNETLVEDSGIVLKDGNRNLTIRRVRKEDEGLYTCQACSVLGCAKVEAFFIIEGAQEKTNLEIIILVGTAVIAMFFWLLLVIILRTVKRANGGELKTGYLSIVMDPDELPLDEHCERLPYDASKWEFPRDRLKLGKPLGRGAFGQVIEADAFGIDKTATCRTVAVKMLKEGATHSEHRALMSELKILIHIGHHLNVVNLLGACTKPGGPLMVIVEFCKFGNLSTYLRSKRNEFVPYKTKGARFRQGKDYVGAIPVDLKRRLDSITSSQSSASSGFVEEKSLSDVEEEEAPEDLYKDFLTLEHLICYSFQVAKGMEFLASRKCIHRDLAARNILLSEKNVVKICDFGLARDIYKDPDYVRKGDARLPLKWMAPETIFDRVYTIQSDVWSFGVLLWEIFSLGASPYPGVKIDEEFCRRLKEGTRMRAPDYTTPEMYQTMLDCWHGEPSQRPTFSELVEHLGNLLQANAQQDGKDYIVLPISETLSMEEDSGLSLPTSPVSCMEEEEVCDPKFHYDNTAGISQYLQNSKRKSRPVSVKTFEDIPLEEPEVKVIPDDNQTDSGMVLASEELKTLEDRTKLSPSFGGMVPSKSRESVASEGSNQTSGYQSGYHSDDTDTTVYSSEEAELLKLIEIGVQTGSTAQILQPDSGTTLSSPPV
row,Binder,IC50
1,"YDGRGDSVVYGLKKKAARGRRAARGRR [ST100,032]",430 nM
2,"PYAGRGDSVVYGLGGGPGAARGRRAARGRR [ST100,033]",1100 nM
